{
  "source": "paper PMC11662687",
  "about": "“Molecular basis of the phosphorothioation-sensing antiphage defense system IscS–DndBCDE–DndI” (Nucleic Acids Research, 2024)",
  "molecules": {"B1": {"name": "70 bp GAAC/GTTC EMSA DNA (PT-free) (dsDNA)", "DNA 1": "GCTGCAACAGGATGCCAATAAGACCAAAAAAACCAGCCAGCAAGCAGAGAACGACGAGAGCTGGCAATCT", "DNA 2": "AGATTGCCAGCTCTCGTCGTTCTCTGCTTGCTGGCTGGTTTTTTTGGTCTTATTGGCATCCTGTTGCAGC"}},
  "key": {"DndI [1]": {"biological_target": "T1, DndI (Salmonella enterica, UniProt E2D680)", "set-up": "gene A6E75_01280", "details": "r3.1 buffer, 10 mM MgCl2, pH 7.9, 37 °C; without or with phosphorothioate pUC19 DNA"}, "DndI [2]": {"biological_target": "T1, DndI", "experiment": "nucleoside triphosphatase assay", "assay_type": "biochemical", "set-up": "gene A6E75_01280; full length (residues 1-596); homodimer in crystal; 1,788 bp dndI fragment cloned for FRET construct, but ORF printed elsewhere as 1,971 bp", "details": "r3.1 buffer, 10 mM MgCl2, pH 7.9, 37 °C; without or with phosphorothioate pUC19 DNA buffer presumed"}, "DndI R87A": {"biological_target": "DndI R87A (Salmonella enterica serovar Cerro 87, UniProt E2D680 1-596, R87A)", "experiment": "EMSA", "details": "protein: recombinant; tags: His (pET28a); blunt"}, "DndI [3]": {"biological_target": "T2, DndI (Salmonella enterica serovar Cerro 87, UniProt E2D680 1-596)", "T2 sequence": "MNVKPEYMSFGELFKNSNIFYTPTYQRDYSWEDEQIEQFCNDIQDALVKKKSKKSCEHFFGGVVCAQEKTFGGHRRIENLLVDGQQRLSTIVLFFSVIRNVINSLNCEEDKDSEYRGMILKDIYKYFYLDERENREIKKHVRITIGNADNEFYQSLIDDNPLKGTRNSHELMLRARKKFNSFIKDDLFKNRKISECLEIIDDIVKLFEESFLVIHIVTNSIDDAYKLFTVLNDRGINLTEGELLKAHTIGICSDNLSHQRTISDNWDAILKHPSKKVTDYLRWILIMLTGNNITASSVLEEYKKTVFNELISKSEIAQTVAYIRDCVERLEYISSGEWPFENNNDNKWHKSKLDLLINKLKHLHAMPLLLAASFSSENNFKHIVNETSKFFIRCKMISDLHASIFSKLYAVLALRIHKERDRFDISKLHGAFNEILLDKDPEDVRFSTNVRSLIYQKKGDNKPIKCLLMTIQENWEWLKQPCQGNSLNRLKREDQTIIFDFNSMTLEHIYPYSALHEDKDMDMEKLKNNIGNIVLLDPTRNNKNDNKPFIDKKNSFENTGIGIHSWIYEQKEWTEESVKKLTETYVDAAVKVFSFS", "experiment": "EMSA; EMSA: 100 nM 70 bp DNA, 10 uL, NEB r3.1 buffer (composition and pH not given), 4 C, 1 h, 6% polyacrylamide gel", "details": "protein: recombinant; tags: His (pET28a); chain copies: 2; blunt"}, "DndI CTD": {"biological_target": "T3, DndI CTD (Salmonella enterica serovar Cerro 87, UniProt E2D680 239-596)", "T3 sequence": "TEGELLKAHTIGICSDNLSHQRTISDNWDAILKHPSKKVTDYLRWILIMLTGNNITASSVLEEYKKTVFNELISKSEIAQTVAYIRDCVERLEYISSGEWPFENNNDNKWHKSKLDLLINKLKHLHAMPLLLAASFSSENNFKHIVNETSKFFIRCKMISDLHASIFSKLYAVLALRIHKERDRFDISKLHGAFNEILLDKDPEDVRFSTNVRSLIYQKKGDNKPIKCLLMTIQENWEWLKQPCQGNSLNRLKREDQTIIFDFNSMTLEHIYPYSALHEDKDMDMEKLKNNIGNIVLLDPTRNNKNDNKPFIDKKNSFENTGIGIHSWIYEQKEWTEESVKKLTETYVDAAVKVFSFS", "experiment": "EMSA; EMSA: 100 nM 70 bp DNA, 10 uL, NEB r3.1 buffer (composition and pH not given), 4 C, 1 h, 6% polyacrylamide gel", "details": "protein: recombinant; tags: His (pET28a); blunt"}},
  "data": [
    {"molecule": "Nc1ncnc2c1ncn2[C@@H]1O[C@H](COP(=O)(O)OP(=O)(O)OP(=O)(O)O)[C@@H](O)[C@H]1O", "note": "[ATP]", "values": [
      {"measurement": "malachite green phosphate release", "setting": "DndI [1]", "result": "DndI exhibited an intrinsic ATPase activity"}
    ]},
    {"molecule": "Nc1nc2c(ncn2[C@@H]2O[C@H](COP(=O)(O)OP(=O)(O)OP(=O)(O)O)[C@@H](O)[C@H]2O)c(=O)[nH]1", "note": "[GTP]", "values": [
      {"measurement": "nucleoside triphosphatase assay", "setting": "DndI [2]", "result": "DndI demonstrated weak hydrolytic capabilities with regard to GTP, CTP and UTP"}
    ]},
    {"molecule": "B1", "values": [
      {"measurement": "Kd", "setting": "DndI R87A", "result": 3.3, "unit": "µM"},
      {"measurement": "Kd", "setting": "DndI [3]", "result": 9.31, "unit": "µM"},
      {"measurement": "Kd", "setting": "DndI CTD", "result": 660, "unit": "nM"}
    ]}
  ]
}
